Measured values taken from publication PMC5318444.

Experiments:
[1] = biological target: T1, ArcA (Escherichia coli (uropathogenic CFT073?)) (UniProt P0A9Q2); assay: EMSA; details: 10 mM Tris pH 7.5, 1 mM EDTA, 1 mM DTT, 50 mM KCl, 50 mM MgCl2, 1 ug/ml BSA; 10 nM DNA, protein 0-240 nM; 30 min room temperature (ArcA, RpoN) …
T1 sequence: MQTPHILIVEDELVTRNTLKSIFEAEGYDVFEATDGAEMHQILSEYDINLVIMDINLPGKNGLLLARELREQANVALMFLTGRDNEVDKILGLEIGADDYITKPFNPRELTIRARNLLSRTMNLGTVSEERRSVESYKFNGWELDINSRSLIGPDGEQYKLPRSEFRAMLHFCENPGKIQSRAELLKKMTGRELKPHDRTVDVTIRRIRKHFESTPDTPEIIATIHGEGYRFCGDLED

[2] = test system: RpoN (sigma54) (Escherichia coli (CFT073?)), ORF:8ae15e91; assay: EMSA; details: 10 mM Tris pH 7.5, 1 mM EDTA, 1 mM DTT, 50 mM KCl, 50 mM MgCl2, 1 ug/ml BSA; 10 nM DNA, protein 0-240 nM; 30 min room temperature (ArcA, RpoN) …

Row | Sequence | binding [1] | binding [2]
1 | ATCTGTGTGGTAAGAGAATCACCTTTTATTTACTGTGCGGAAAACCGCGCACAAAATAAAAAGAATAAATAATAAAATCATTAAATAACAAAGCGTTATTAAAAAATTAAAGATGGCATAGCTCCTGCAATAGCCAGGCAGGTTTTTTATTTTTCACAATGAGGTGAATATGTCATCAATATCCCATGGCGCACCACAAAAGCGTCGAATTATCCCTAATCCCGGCCTGTGGTT (double strand) [c5038 promoter probe] | no binding | binds
2 | ATGTTAAGCATGATAACGCCTTTTAGGGGCAATTTAAAAGTTGGCACAGATTTCGCTTTATCTTTTTTACGGCGACACGGCCCATTTAATTGCAGATTTCGTTACCACGACGACAATGACCAATCCAGGAGAGTTAAAGTATGTCCGCTGAACACGTACTGACGATGCTGAACGAGCACGAAGTGAAGTTTGTTG (double strand) [glnA promoter probe] |  | binds
3 | GGCGCGTCTTATACTCCCACATAAGCCAGATTCAACAGCGAATACGTCTTCCCCAAATTGCCCACTTCCATACTTCCTCCTTACCAGAAATCTATCCTTAAGCTCCTTAATAACCATTTTCCTGCTAACTAAATTCATGGTTAAGGTTGCATAATGATATGCAACAAATGTATAACATTTTTCTTACCAAAAAATAAACAAAAGCGACCGACAAAAGCATTGGATTACGGCAGGAG (double strand) [kgtP promoter probe] | binds | 
4 | TGCGCAATTGTACTTATTGCATTTTTCTCTTCGAGGAATTACCCAGTTTCATCATCCCATTTTATTTTGCGAGCGAGCGCACACTTGTGAATTATCTCAATAGCAGTGTGAAATAACATAATTGAGCAACTGAAAGGGAGTGCCCAATATTACGACATCATCCATCACCCGCGGCATTACCTGATTATGGAGTTCAATATGCAAGCCT (double strand) [xylA promoter probe] |  | no binding
